The values that follow are results of earlier work, collected in publication PMC10361719.

For orientation: Kd means the equilibrium constant for the complex coming apart.

The series addresses Gag (Human immunodeficiency virus 1) (UniProt O93182).

Sequence of Gag (O93182 2-500): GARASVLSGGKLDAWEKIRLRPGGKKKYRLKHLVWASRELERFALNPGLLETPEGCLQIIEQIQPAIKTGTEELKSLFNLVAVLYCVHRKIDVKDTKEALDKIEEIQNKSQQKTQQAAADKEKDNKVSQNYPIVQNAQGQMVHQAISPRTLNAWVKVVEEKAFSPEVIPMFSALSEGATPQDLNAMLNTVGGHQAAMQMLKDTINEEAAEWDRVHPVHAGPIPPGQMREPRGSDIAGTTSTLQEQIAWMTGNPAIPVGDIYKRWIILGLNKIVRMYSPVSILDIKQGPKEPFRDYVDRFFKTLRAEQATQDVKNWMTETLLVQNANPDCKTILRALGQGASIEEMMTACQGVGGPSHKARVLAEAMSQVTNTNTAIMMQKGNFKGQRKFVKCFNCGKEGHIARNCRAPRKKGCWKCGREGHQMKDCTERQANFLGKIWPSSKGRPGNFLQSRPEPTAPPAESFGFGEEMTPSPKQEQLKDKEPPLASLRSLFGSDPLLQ

With Gag (from UniProt O93182), the Kd is 5.5 µM.
